From paper PMC8055034

Legend:
[1] = target: 1PGE-THIVC SOSIP.664 gp140 Env trimer (HIV-1 clade C); assay: negative-stain EM; SEC-purified trimers at 0.01-0.03 mg/ml on carbon-coated grids, 2% uranyl formate, 2D class averages
PGT145 = assay: D-7324 capture ELISA; details: value read at the highest antibody concentration, PGT145 10 µg/ml; parent: est. 1.3; read off a plot
VRC01 = assay: D-7324 capture ELISA; details: value read at the highest antibody concentration, VRC01 10 µg/ml; parent: est. 2.8; read off a plot
CD4-IgG2 = CD4-IgG2 (UniProt P01730); assay: D-7324 capture ELISA; details: value read at the highest concentration, CD4-IgG2 10 µg/ml; parent: est. 2.5; read off a plot

**Q.** How did the stoichiometry N [1] turn out when “1PGE-THIVC SOSIP.664 gp140 Env trimer (complex)” was run?
**A.** Its stoichiometry N is 3.

**Q.** “1PGE-THIVC SOSIP.664 gp140 Env trimer N279E” was tested. Which response (PGT145) did it give?
**A.** Its response is 1.3 A450.

**Q.** What about the response (VRC01) of the same substance?
**A.** The response was 0.93 A450.

**Q.** What about the response (CD4-IgG2) of the same substance?
**A.** The response was 0.98 A450.
